In US20230279105A1 (SINGLE CELL TECHNOLOGY, published 2023):
Changes are numbered by the printed parent chain. Blank lines part the entries; values can stand above or below the binder they belong to.

Target: T1, Human TIM-3 Human Fc tagged protein (human, fluorescently labeled with HiLyte Fluor 555 (sites not given))
T1 construct: Bought construct; also called TIM-3 protein tagged with human Fc; ACROBiosystems catalog no: TM3-H5258
Experiment: capture slide probed with labeled TIM-3-Fc;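 also: IgG from single CD138-enriched plasma cells, isolated from lymphocytes, immobilized on a derivatized glass slide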

binding result: binds
B24: SCT-Fa054 (antibody, V domains shown)
VH: EVQLQQSGPVLVKPGASVKMSCKASGYSFTGYHMNWVKQSHGKSLEWIGIINPYNSATTYNQKFKGKATLTVDKSSSTAYMEVNSLTSEDSLVYYCVRGAYGNPLDYWGQGTTLTVSS
VL: DIKMTQSPSSMYASLGERVTITCKASQDINSYLSWFQQKPGKSPKTLIYRANRLLDGVPSRFSGSGSGQDYSLTISSLEYEDMGIYYCLQYDEYPYTFGGGTKLEIK
notes: murine IgG

binding result: binds
B25: SCT-Fa052 (antibody, V domains shown)
VH: B24 VH with T58S, V83L, L92V
VL: B24 VL with A51T, L55V
notes: murine IgG

binding result: binds
B27: SCT-Fa064 (antibody, V domains shown)
VH: EVQLQQSGTVLARPGASVKMSCKTSGYTFTRYWMHWVKQRPGQGLEWIGAIYPGNSDTNYNQKIKDKAKLTAVTTASTAYMELSSLTNEDSAVYYCTFFYGNYVNYWGQGTTLTVSS
VL: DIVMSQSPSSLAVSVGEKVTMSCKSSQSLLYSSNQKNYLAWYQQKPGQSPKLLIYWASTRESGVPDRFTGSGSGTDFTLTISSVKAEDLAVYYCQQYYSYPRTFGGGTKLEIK
notes: murine IgG

binding result: binds
B28: SCT-Fa065 (antibody, V domains shown)
VH: B27 VH with D66G, S84I, F99Y
VL: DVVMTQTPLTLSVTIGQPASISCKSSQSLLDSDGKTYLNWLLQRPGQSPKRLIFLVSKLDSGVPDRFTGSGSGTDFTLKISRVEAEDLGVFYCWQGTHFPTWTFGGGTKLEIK
notes: murine IgG

binding result: binds
B29: SCT-Fa069 (antibody, V domains shown)
VH: B27 VH with K65Q
VL: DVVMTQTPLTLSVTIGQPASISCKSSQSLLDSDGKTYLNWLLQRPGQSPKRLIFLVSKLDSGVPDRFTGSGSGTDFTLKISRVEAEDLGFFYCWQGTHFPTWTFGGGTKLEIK
notes: murine IgG

binding result: binds
B30: SCT-Fa066 (antibody, V domains shown)
VH: B27 VH with D66G, V93A, F99Y
VL: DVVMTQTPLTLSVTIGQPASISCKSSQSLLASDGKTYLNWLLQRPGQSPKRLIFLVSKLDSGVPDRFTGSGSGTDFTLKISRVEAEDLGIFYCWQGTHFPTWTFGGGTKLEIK
notes: murine IgG

binding result: binds
B31: SCT-Fa062 (antibody, V domains shown)
VH: B27 VH with S25P, D66G, F99Y
VL: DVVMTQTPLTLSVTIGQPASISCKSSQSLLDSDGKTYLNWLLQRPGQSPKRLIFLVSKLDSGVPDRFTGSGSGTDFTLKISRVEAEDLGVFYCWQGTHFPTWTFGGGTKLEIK
notes: murine IgG

binding result: binds
B32: SCT-Fa063 (antibody, V domains shown)
VH: B27 VH with T30I, N59T, I64F, D66G, K67R, T75S, F99Y, Y106F
VL: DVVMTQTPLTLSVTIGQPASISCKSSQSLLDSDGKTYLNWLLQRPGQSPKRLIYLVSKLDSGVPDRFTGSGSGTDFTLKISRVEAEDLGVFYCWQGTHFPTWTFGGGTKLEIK
notes: murine IgG

binding result: binds
B33: SCT-Fa067 (antibody, V domains shown)
VH: B27 VH with D66G, F99Y
VL: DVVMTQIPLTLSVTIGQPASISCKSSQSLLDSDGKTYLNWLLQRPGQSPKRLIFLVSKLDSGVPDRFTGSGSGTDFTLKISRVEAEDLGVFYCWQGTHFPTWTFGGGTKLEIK
notes: murine IgG

binding result: binds
B34: SCT-Fa035 (antibody, V domains shown)
VH: EVQLQQSGAELVKPGASVKLSCTDFGFNIKDYYMHWVKQRTEQGLEWIGRIDPEDGETKYVPKFQGKATITADTSSNTAFLHLTSLTSEDTAVYYCARSNPYYFDYWGQGTTLTVSS
VL: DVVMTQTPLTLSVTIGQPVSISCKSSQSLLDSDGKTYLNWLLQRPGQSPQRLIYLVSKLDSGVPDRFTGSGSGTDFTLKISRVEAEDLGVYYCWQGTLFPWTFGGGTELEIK
notes: murine IgG

More lines, now with the values behind:

B1: SCT-Fa057 (antibody, V domains shown)
VH: EVQLQQSGPVLVKPGASVKMSCKASGYTFTDYYMNWVKQSHGKSLEWIGVINPYNGGTSYNQKFKGKATLTVDKSSSTAYMELNSLTSEDSAVYYCARGGDYDVNYSAMDYWGQGTSVTVSS
VL: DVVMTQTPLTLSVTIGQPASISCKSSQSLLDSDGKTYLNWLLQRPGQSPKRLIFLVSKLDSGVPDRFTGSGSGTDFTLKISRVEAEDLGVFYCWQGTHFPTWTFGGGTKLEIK
notes: murine IgG
binding result: binds

B2: SCT-Fa076 (antibody, V domains shown)
VH: EVQVLETGGGLVQPGGSRGLSCEGSGFTFSGFWMSWVRQTPGKTLEWIGDINSDGSTIHYGPSMKDRFTIFRDNDKNTLYLQMNNVRSEDTAKYFCMSLLLNVWGTGTTVTVSS
VL: DIQMTQSPSSLSASLGERVSLTCRASQEISGYLSWLQQKPDGTIKRLISRASSLDFGVPKRFRGSRSGSDYSLTISSLESEDFADYYCLQYANYPLTFGAGTKLELK
notes: murine IgG
binding result: binds

B3: SCT-Fa026 (antibody, V domains shown)
VH: EVQLQQSGAELVKPGASVKLSCTASGFNIKDFYMHWVHQRTEKGLEWIGRIDPEDGKTKYAPKFQGKATITADTSSNTAYLQLSSLTSEDTAVYYCARSNPYFFDYWGQGTTLTVSS
VL: DIQMNQSPSSLSASLGDTITITCHASQTINVWLSWYQQKPGNIPKLLIYKASNLHTGVPSRFSGSGSGTGFTLNISSLQPEDIATYYCHQGQSYPYTFGGGTKLEIK
notes: murine IgG
binding result: binds

B4: SCT-Fa027 (antibody, V domains shown)
VH: EVQLQQSGAELVKPGASVKLSCTASGFNIKDYYIHWVKQRTDQGLEWIGRIDPDNGETKYAPKFQGKATITADTSSNTAYLQLGSLTSEDTAVYYCARSSPYYFDYWGQGTTLTVSS
VL: B3 VL with T28N, G68V, N74T, H89Q, S93N, Y94F, K107I
notes: murine IgG
binding result: binds

B5: SCT-Fa028 (antibody, V domains shown)
VH: B4 VH with I34M, Q43H
VL: B3 VL with T28N, G68V, N74T, H89Q, S93N, Y94F
notes: murine IgG
binding result: binds

B6: SCT-Fa031 (antibody, V domains shown)
VH: B34 VH with D24A, F25S
VL: B3 VL with I19V, N74T, H89Q, S93N
notes: murine IgG
binding result: binds

B7: SCT-Fa034 (antibody, V domains shown)
VH: B34 VH
VL: B3 VL with I19V, N74T, H89Q, S93N
notes: murine IgG
binding result: binds

B8: SCT-Fa043 (antibody, V domains shown)
VH: B4 VH with K13R, I34M, D42E, G56D, T58I, I70L, Y80S, G84S, S85G
VL: B3 VL with T28N, G68V, N74T, H89Q, S93N, Y94I, K103Q
notes: murine IgG
binding result: binds

B9: SCT-Fa038 (antibody, V domains shown)
VH: B3 VH with A24V, F32Y, H38K, K43Q, D55N, G56D, T58I, A79V
VL: B3 VL
notes: murine IgG
binding result: binds

B10: SCT-Fa033 (antibody, V domains shown)
VH: B3 VH with F32Y, H38R, K43Q, K57E, D73A, A79P, S85G, A97G, F103Y
VL: B3 VL with T18R, T22N, T28N, G68V, G70V, N74T, H89Q, S93N
notes: murine IgG
binding result: binds

B11: SCT-Fa030 (antibody, V domains shown)
VH: B3 VH with F32Y, H38K, K43Q, K57E, Y80S, T112P
VL: B3 VL with N53K, L54M
notes: murine IgG
binding result: binds

B12: SCT-Fa047 (antibody, V domains shown)
VH: EVQLQQSGPELVKPGASVKISCKASGYTFTDYYMNWVKQSHGKSLEWIGDINLNNGGTVYNQKFRGKATLTVDKSSSTAYMELRSLTSEDSAVYYCEGLGGYWGQGTTLTVSS
VL: DVLMTQTPLSLPVSLGDQVSISCRSSQSIVHSNGNTYLEWYLQKPGQSPNLLIYKVANRLSGVPDRFSGSGSGTDFTLKISRVEAEDLGVYYCFQGSHVPFTFGSGTKLEIK
notes: murine IgG
binding result: binds

B13: SCT-Fa048 (antibody, V domains shown)
VH: B12 VH with F29L, K43E, L53P, G57D, T58I, V59N, R65K, V72A
VL: B12 VL with V19A, S28T, K44T, N50K, A57S, L60I
notes: murine IgG
binding result: binds

B14: SCT-Fa049 (antibody, V domains shown)
VH: B12 VH with A16S, F29L, K43E, L53P, G57D, T58I, V59N, R65K, V72A
VL: B12 VL with V19A, S28T, K44T, N50K, A57S, L60I
notes: murine IgG
binding result: binds

B15: SCT-Fa005 (antibody, V domains shown)
VH: EVHLQQSVAEVVRPGASVNLSCTVSGFNNKNTYMYWVKQRPEQGLEWIGIIDPANGNVKYAPKFQGKATITADTSSNTAYLQLSSLTSEDTAIYYCARGSSRLYYALDYWGQGTSVTVSS
VL: DIVLTQSPASLAVSLGQRATISCRASESVDSYGNSFMHWYQQKPGQPPKLLIYRASNLESGIPARFSGSGSRTDFTLTIYPVEADDVATYYCQQSNEDPYTFGGGTKLEIK
notes: murine IgG
binding result: binds

B16: SCT-Fa050 (antibody, V domains shown)
VH: EVQLQQSGPMLVKPGASVKMSCKASGNTFTAFYMSWVKQSHGKSLEWIGVVNPYNGGAGYNQKFKGKATLTVDKSSSTAYMELNGLTSEDSAVYYCLLWEFAHWGQGTLVTVSA
VL: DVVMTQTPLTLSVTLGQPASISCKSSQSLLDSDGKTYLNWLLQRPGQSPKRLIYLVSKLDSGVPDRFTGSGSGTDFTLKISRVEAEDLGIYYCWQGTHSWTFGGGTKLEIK
notes: murine IgG
binding result: binds

B17: SCT-Fa003 (antibody, V domains shown)
VH: EGKLEESGGGLVQPGGSMKLSCAASGFTFSDAWMDWVRQSPKKGLEWVAEIRNKANKHSKHYAESVKGRFTISRDDSKSSVYLQMNSLRAEDTGIYYCSYDYIFAYWGQGTLVTVSA
VL: DVVMTQTPLSLPVSLGDQASISCRSSQSLVHSNGNTYLHWYLQKPGQSPKLLIYKVSNRFSGVPDRFSGSGSGTDFTLKISRVEAEDLGVYFCSQSTHVPWTFGGGTKLEIK
notes: murine IgG
binding result: binds

B18: SCT-Fa046 (antibody, V domains shown)
VH: EVQLQQSGPELVKPGASVKISCKASGYTFTDYNMHWVKQSHGKSLAWIGYIYPYNGGTGYNQKFKNKATLTVDDSSSTAYMDLRSLTSDDSAVYYCAREDYGSREWFAYWGQGTLVTVSA
VL: B17 VL with H39Y, W101L, G105A, I111L
notes: murine IgG
binding result: binds

B19: SCT-Fa072 (antibody, V domains shown)
VH: EVQLVESGGDLVKPGGSLKLSCAASGFTFSDYGMSWVRQTPDKRLEWVATISSGGSYTYYADSVKGRFTISRDNAKNTLYLQMSSLKSEDTAMYFCTRHEITTVLSTDYAMDYWGQGTSVTVSS
VL: B17 VL with N33I, S81I, V99I, I111L, K112R
notes: murine IgG
binding result: binds

B20: SCT-Fa053 (antibody, V domains shown)
VH: B24 VH with V83L, L92V
VL: B24 VL with L55V
notes: murine IgG
binding result: binds

B21: SCT-Fa055 (antibody, V domains shown)
VH: EVQLQQSGPVLVKPGASVKMSCKASGYTFTDYHMNWVKQSHGKSLEWIGVISPYNGGTSQNQKFKGKATLTVDKSSSTAYMELNRLTSEDSAVYYCARSDYGSPLDYWGQGTTLTVSS
VL: B24 VL with S34R, L55V, T74N, Y94F
notes: murine IgG
binding result: binds

B22: SCT-Fa061 (antibody, V domains shown)
VH: B24 VH with K13R, G42V, K63N, V83L, L92V
VL: B24 VL with Q38L, L55V, R61G
notes: murine IgG
binding result: binds

B23: SCT-Fa059 (antibody, V domains shown)
VH: B24 VH with K23Q, A57G, T58I, K67R, S77D, E82D, V83L, L92V
VL: B24 VL with K3R, M11I, K45E, A51T, L55V
notes: murine IgG
binding result: binds

B26: SCT-Fa068 (antibody, V domains shown)
VH: B27 VH with D66G, F99Y
VL: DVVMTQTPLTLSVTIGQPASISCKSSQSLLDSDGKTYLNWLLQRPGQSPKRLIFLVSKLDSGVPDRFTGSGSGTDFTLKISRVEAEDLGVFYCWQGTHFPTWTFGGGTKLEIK
notes: murine IgG
binding result: binds
